Data on 26 molecules can be found in patent US20080058263A1 (published 2008).

To fix the notation:
T1: VEGFR-3-Fc (UniProt P35916 25-328)
T1 construct: domain: first three Ig domains; conditioned supernatant of 293T cells; also called VEGFR-3-Fc fusion protein; not shown: Fc fragment of the pIg vector
T1 sequence (looked up): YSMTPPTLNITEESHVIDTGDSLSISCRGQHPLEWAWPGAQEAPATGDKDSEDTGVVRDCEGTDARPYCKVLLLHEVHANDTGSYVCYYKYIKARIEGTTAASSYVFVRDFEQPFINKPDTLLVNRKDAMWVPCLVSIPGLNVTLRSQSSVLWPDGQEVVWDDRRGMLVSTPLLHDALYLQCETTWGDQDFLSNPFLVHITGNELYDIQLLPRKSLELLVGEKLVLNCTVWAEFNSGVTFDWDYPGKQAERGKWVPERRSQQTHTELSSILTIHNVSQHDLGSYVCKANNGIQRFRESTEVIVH

B1: 13-4 (ligand)
chain: GQNHHEVVKFMDVYQRSYCHPIETLVDIFQEYPDEIEYIFKPPCVSVYRCGGCCNSEGLQCMNTSTSYLSKTLFEIKPHQGQHIGEMSFLQHNKCECRPKKD
B2: 13-14 (ligand)
chain: GQNHHEVVKFMDVYQRSYCHPIETLVDIFQEYPDEIEYIFKPPCVSVYRCGGCCNDEGLECMNTSTSYLSKTLFEITVPLSQGPKPVTISFANHTSCRCMSKLD
B3: 31-6 (ligand)
chain: GQNHHEVVKSIDNEWRKTQCMPIETLVDIFQEYPDEIEYIFKPSCVPLMRCGGCCNDEGLECMNTSTSYLSKTLFEIKPHQGQHIGEMSFANHTSCRCMSKLD
B4: 24-5 (ligand)
chain: AHYNTEILKSIDNEWRKTQCMPREVCIDVGKEFGVATNTFFKPSCVPLMRCGGCCNDEGLECVPTEESNITMQIMRIKPHQGQHIGEMSFANHTSCRCMSKLD
B5: 74-7 (ligand)
chain: B4 chain with A1G, H2Q, Y3N, N4H, T5H, I7V, L8V, D57S, E61Q
B6: 24-3 (ligand)
chain: B4 chain with D57S, E61Q, A91L, N92Q, T94N, S95K, R97E, M99R, S100P, L102K
B7: 72-5 (ligand)
chain: GQNHHEVVKSIDNEWRKTQCMPREVCIDVGKEFGVATNTFFKPPCVSVYRCGGCCNDEGLECVPTEESNITMQIMRIKPHQGQHIGEMSFANHTSCRCMSKLD
B8: 22-5 (ligand)
chain: B4 chain with S44P, P47S, L48V, M49Y
B9: 74-5 (ligand)
chain: B7 chain with P44S, S47P, V48L, Y49M
B10: 54-5 (ligand)
chain: B4 chain with R23I, V25T, C26L, I27V, V29I, G30F, K31Q
B11: 24-7 (ligand)
chain: B4 chain with D57S, E61Q
B12: 52-5 (ligand)
chain: AHYNTEILKSIDNEWRKTQCMPIETLVDIFQEFGVATNTFFKPPCVSVYRCGGCCNDEGLECVPTEESNITMQIMRIKPHQGQHIGEMSFANHTSCRCMSKLD
B13: 21-7 (ligand)
chain: B4 chain with F33Y, G34P, V35D, A36E, T37I, N38E, T39Y, F40I, D57S, E61Q
B14: 22-7 (ligand)
chain: B4 chain with S44P, P47S, L48V, M49Y, D57S, E61Q
B15: 24-1 (ligand)
chain: B4 chain with A91L, N92Q, T94N, S95K, R97E, M99R, S100P, L102K
B16: 23-5 (ligand)
chain: AHYNTEILKSIDNEWRKTQCMPREVCIDVGKEYPDEIEYIFKPPCVSVYRCGGCCNDEGLECVPTEESNITMQIMRIKPHQGQHIGEMSFANHTSCRCMSKLD
B17: 21-5 (ligand)
chain: B16 chain with P44S, S47P, V48L, Y49M
B18: 54-7 (ligand)
chain: B12 chain with P44S, S47P, V48L, Y49M, D57S, E61Q
B19: 23-1 (ligand)
chain: B16 chain with A91L, N92Q, T94N, S95K, R97E, M99R, S100P, L102K
B20: 23-3 (ligand)
chain: B16 chain with D57S, E61Q, A91L, N92Q, T94N, S95K, R97E, M99R, S100P, L102K
B21: 72-7 (ligand)
chain: GQNHHEVVKSIDNEWRKTQCMPREVCIDVGKEFGVATNTFFKPPCVSVYRCGGCCNSEGLQCVPTEESNITMQIMRIKPHQGQHIGEMSFANHTSCRCMSKL
B22: 31-4 (ligand)
chain: GQNHHEVVKSIDNEWRKTQCMPIETLVDIFQEYPDEIEYIFKPSCVPLMRCGGCCNDEGLECVPTEESNITMQIMRITVPLSQGPKPVTISFANHTSCRCMSKLD
B23: 72-1 (ligand)
chain: B7 chain with A91L, N92Q, T94N, S95K, R97E, M99R, S100P, L102K
B24: 72-3 (ligand)
chain: B7 chain with D57S, E61Q, A91L, N92Q, T94N, S95K, R97E, M99R, S100P, L102K
B25: 14-13 (ligand)
chain: GQNHHEVVKFMDVYQRSYCHPIETLVDIFQEFGVATNTFFKPSCVPLMRCGGCCNDEGLECVPTEESNITMQIMRITVPLSQGPKPVTISFANHTSCRCMSKLD
B26: 14-15 (ligand)
chain: B25 chain with D56S, E60Q

Numbering of substitutions follows the chain as printed.

For the first assay, the target named is T2, VEGFR-2-Fc (UniProt P35968 20-322).
T2 construct: domain: first 3 Ig domains; conditioned supernatant of 293T cells; also called VEGFR-2-Fc fusion protein; not shown: Fc fragment of the pIg vector
T2 sequence (P35968 20-322): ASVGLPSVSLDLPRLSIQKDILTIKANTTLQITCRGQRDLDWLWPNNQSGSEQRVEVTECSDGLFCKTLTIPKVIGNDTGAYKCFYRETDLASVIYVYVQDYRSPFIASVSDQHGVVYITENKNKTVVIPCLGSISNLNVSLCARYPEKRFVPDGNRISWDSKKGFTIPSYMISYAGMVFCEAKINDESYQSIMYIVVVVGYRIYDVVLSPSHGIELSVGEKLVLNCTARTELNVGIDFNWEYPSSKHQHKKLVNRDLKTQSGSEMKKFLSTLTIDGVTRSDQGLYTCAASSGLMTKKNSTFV
In words: receptor-Fc IP. The essentials:
(§1)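 Binding of ligand from sample supernatant measured by pentahistidine-antibody immunoprecipitation. IP mix: PBS with 1.5% BSA, 0.06% Tween 20, 3 μg/ml heparin and 400 ng/ml fusion protein, added 1:2 to sample supernatant.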
B1: the binding result is reported as “no binding”.

Consider B2, for which the binding result is given as “no binding”.

On to B3, for which the binding result is listed as “no binding”.

Take B4: the binding result is “no binding”.

As for B5, the binding result is given as “no binding”.

In the case of B6, the binding result is recorded as “no binding”.

As for B7, the binding result was “no binding”.

With B8, the binding result is recorded as “no binding”.

Regarding B9, the binding result is “no binding”.

As for B10, the binding result is listed as “no binding”.

On to B11, for which the binding result is “no binding”.

Turning to B12, the binding result is listed as “no binding”.

As for B13, the binding result was “no binding”.

In the case of B14, the binding result is on record as “no binding”.

For the molecule B15, the binding result is “no binding”.

Take B16: the binding result was “no binding”.

Turning to B17, the binding result is on record as “no binding”.

As for B18, the binding result is on record as “no binding”.

As for B19, the binding result is “no binding”.

In the case of B20, the binding result is on record as “no binding”.

Take B21: the binding result is listed as “no binding”.

Turning to B22, the binding result was “no binding”.

On to B23, for which the binding result is reported as “no binding”.

Consider B24, for which the binding result is “no binding”.

Turning to B25, the binding result was “no binding”.

Turning to B26, the binding result was “no binding”.

A further assay deals with T3, VEGFR-1-Fc (UniProt P17948 27-338).
T3 construct: domain: first three Ig domains; expressed in Drosophila S2 cells, purified on Protein A sepharose; also called VEGFR-1-Fc fusion protein; not shown: Fc fragment from the Signal-pIgPlus vector
T3 sequence (P17948 27-338): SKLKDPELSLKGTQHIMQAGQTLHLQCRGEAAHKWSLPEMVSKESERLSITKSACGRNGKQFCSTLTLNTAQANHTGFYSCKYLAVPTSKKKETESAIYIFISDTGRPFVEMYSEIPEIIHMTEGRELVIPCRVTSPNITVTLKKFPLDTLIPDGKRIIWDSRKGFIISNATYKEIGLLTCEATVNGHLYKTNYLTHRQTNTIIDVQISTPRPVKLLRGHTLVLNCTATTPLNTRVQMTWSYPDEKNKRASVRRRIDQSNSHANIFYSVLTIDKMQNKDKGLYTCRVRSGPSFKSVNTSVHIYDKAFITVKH
Description: receptor-Fc IP. In a few lines:
as §1
Consider B1, for which the binding result is “no binding”.

Regarding B2, the binding result is listed as “no binding”.

B3: the binding result is given as “no binding”.

B4: the binding result was “no binding”.

Turning to B5, the binding result is on record as “no binding”.

Take B6: the binding result is given as “no binding”.

As to B7, the binding result is given as “no binding”.

Consider B8, for which the binding result was “no binding”.

Regarding B9, the binding result is “no binding”.

B10: the binding result is “no binding”.

Take B11: the binding result is reported as “no binding”.

Consider B12, for which the binding result was “no binding”.

As for B13, the binding result was “no binding”.

Turning to B14, the binding result is reported as “no binding”.

On to B15, for which the binding result is given as “no binding”.

Consider B16, for which the binding result is reported as “no binding”.

On to B17, for which the binding result is “no binding”.

As to B18, the binding result is recorded as “no binding”.

Consider B19, for which the binding result is reported as “no binding”.

Consider B20, for which the binding result is reported as “no binding”.

As to B21, the binding result is on record as “no binding”.

B22: the binding result is “no binding”.

As to B23, the binding result was “no binding”.

In the case of B24, the binding result was “no binding”.

For the molecule B25, the binding result is on record as “no binding”.

For the molecule B26, the binding result is listed as “no binding”.

The target in the next assay is T1, VEGFR-3-Fc. In words: receptor-Fc IP. In a few lines:
as §1
On to B1, for which the binding result was “no binding”.

As to B2, the binding result is given as “no binding”.

With B3, the binding result is reported as “no binding”.

As to B4, the binding result is listed as “no binding”.

For B5, the binding result is reported as “no binding”.

For the molecule B6, the binding result was “no binding”.

For the molecule B7, the binding result is reported as “no binding”.

Take B8: the binding result was “no binding”.

Take B9: the binding result is recorded as “no binding”.

Turning to B10, the binding result is “no binding”.

With B11, the binding result is on record as “no binding”.

Take B12: the binding result was “no binding”.

As to B13, the binding result is given as “no binding”.

Turning to B14, the binding result is given as “no binding”.

With B15, the binding result was “no binding”.

Consider B16, for which the binding result was “no binding”.

Consider B17, for which the binding result was “no binding”.

In the case of B18, the binding result is given as “no binding”.

As for B19, the binding result is listed as “no binding”.

With B20, the binding result was “no binding”.

Turning to B21, the binding result was “no binding”.

For B22, the binding result is listed as “no binding”.

Consider B23, for which the binding result was “no binding”.

Regarding B24, the binding result is recorded as “no binding”.

With B25, the binding result is given as “no binding”.

On to B26, for which the binding result is recorded as “no binding”.
